Measurements taken from article doi:10.1101/2024.05.02.592161.

Molecular target: Mx_pmut, pore-engineered Myxococcus xanthus encapsulin shell protein (Myxococcus xanthus) (UniProt Q1D6H4)
Assay: cryo-EM structure; purified Mx_pmut co-expressed with SNAP-tag-TP cargo (T=3/T=4 sample), 4.1 mg/mL, 150 mM NaCl, 25 mM Tris pH 8.0; icosahedral symmetry imposed

- copies of cargo in a T=3 shell: 180 copies
- copies of cargo in a T=4 shell: 240 copies
Substance: SNAP-tag carrying an Mx-targeting peptide (TP) at its C-terminus
